Values belong to the substance of their own block, whether it stands above or below them.
Assays:
[1] = biological target: HVR peptide (22 amino acid synthetic peptide representing the hypervariable region of K-Ras4B) (human); experiment: ITC
[2] = biological target: calmodulin (human, Ca2+-loaded) (human) (UniProt P0DP23); experiment: NMR titration
[3] = system: CaM; conditions: helix 5 independently expressed; ref [22]; cited from earlier work

Kd [1]: 11.2 µM
dH [1]: 0.65 kcal/mol
stoichiometry N [1]: 1
Substance: calmodulin (human, Ca2+-loaded) (from UniProt P0DP23 1-149) (natural protein)

Kd [2]: 17.5 µM
Substance: HVR peptide (22 amino acid synthetic peptide representing the hypervariable region of K-Ras4B)

Substance: α–helix 5 peptide (amino acids 151–166): hydrophobic α–helix 5 peptide (amino acids 151–166) of K-Ras4B, independently expressed, literature (RVEDAFYTLVREIRQY; isoform 2B; UniProt P01116 151-166, looked up, fragment)
CaM binding [3]: apparent binding to CaM
